Laboratory results taken from US20210061896A1 (SHANGHAI YILE BIOTECHNOLOGY, published 2021).
Ends that are not written are not given here.

B1: 1D3 monoclonal antibody (antibody, human IgG4, kappa, V domains shown)
VH: QVQLVESGGGLIQPGGSMRLSCAASGFSLSGYDMHWVRQIAGKGLEWVAGLGMEGDSYYSASVKGRFTISRQDAKNSLYLEMKDLGGGDTAVYYCLRDVHGFDVWGQGTTVTVSS
VL: DVVMTQSPLSLPVTPGEPASISCRSSQSLLYSNGYTYLDWYLQRPGQSPQLLIYMGSNRASGVPDRFSGSGSGTDFTLKISRVEAEDVGVYYCMQALQTPLTFGGGTKLEIKR
notes: also called recombinant monoclonal antibody 1D3 (human IgG1 type); Ab-proBDNF (1D3)
B2: 2H8 monoclonal antibody (antibody, human IgG4, kappa, V domains shown)
VH: EVQLVETGGGLVQPGGSLRLSCAASGFTFSSYGMHWVRQAPGKGLEWVSVISGSGDSTYYAESVKGRFTISRDNARNTVYLQMNSLRAEDTAVYYCASGILTGYVFDYWGKGTMVTVSS
VL: DVVMTQSPLSLPVTLGQPASISCRSSQSLVSNDGNTYLNWFQQRPGQPPRRLIYMVSKWDSGVPDRFSGSGSGTDFTLRISRVEAEDVGVYYCMQSTHWPPTFGGGTKLEIKR
notes: also called recombinant monoclonal antibody 2H8 (human IgG1 type)
B3: single-chain antibody 1D3 (scFv)
scFv: QVQLVESGGGLIQPGGSMRLSCAASGFSLSGYDMHWVRQIAGKGLEWVAGLGMEGDSYYSASVKGRFTISRQDAKNSLYLEMKDLGGGDTAVYYCLRDVHGFDVWGQGTTVTVSSGGGGSGGGGSGGGGSDVVMTQSPLSLPVTPGEPASISCRSSQSLLYSNGYTYLDWYLQRPGQSPQLLIYMGSNRASGVPDRFSGSGSGTDFTLKISRVEAEDVGVYYCMQALQTPLTFGGGTKLEIKR
notes: also called 1D3, scFv; pCantab-1D3
B4: single-chain antibody 2H8 (scFv)
scFv: EVQLVETGGGLVQPGGSLRLSCAASGFTFSSYGMHWVRQAPGKGLEWVSVISGSGDSTYYAESVKGRFTISRDNARNTVYLQMNSLRAEDTAVYYCASGILTGYVFDYWGKGTMVTVSSGGGGSGGGGSGGGGSDVVMTQSPLSLPVTLGQPASISCRSSQSLVSNDGNTYLNWFQQRPGQPPRRLIYMVSKWDSGVPDRFSGSGSGTDFTLRISRVEAEDVGVYYCMQSTHWPPTFGGGTKLEIKR
notes: probably a print error; also called 2H8, scFv; pCantab-2H8

Columns and labels:
[1] = target: T1, biotinylated LL peptide fragment (human, also: biotinylated (position not given here)); experiment: ELISA on biotinylated peptide
T1 construct: Synthesized in vitro; 12 amino acids
T1 peptide: LLFLLEEYKNYL

[2] = target: T2, biotinylated VP peptide fragment (human, also: biotinylated (position not given here)); experiment: ELISA on biotinylated peptide
T2 construct: Synthesized in vitro; 12 amino acids
T2 peptide: VMLSSQVPLEPP

GST-huBDNFpro E4 [3] = target: T3, GST-huBDNFpro E4; experiment: ELISA on GST fusion proteins (Example 7), single condition
T3 construct: also called GST-huBDNFpro-E4 peptide fragment; GST fusion partner and any linker between GST and the peptide not given
T3 chain: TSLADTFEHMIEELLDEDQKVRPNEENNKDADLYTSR

GST-huBDNFpro E1 [4] = target: T4, GST-huBDNFpro E1; experiment: as above
T4 construct: also called GST-huBDNFpro-E1 peptide fragment; GST fusion partner and any linker between GST and the peptide not given
T4 chain: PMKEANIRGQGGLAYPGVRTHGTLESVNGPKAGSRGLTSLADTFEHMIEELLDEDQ

[5] = target: T5, GST-huBDNFpro-E5 peptide fragment (human); experiment: ELISA on GST fusion proteins (Example 7), single condition, concentrations not given
T5 construct: the text speaks of 36 amino acids; also called polypeptide E5; not shown: Glutathione S-transferase (GST) fusion partner
T5 chain: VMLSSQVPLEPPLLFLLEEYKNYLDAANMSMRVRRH

GST-huBDNFpro E4 [6] = target: T3, GST-huBDNFpro E4; experiment: as above
GST-huBDNFpro E3 = target: T6, GST-huBDNFpro E3; experiment: as above
T6 construct: fusion tag; also called GST-huBDNFpro-E3 peptide fragment

GST-huBDNFpro E1 [7] = target: T4, GST-huBDNFpro E1; experiment: as above
GST-GPC3 = target: T7, GST-GPC3; experiment: as above
T7 construct: fusion tag; It appears to be the negative control antigen

[8] = target: T8, GST-huBDNFpro-E2 peptide fragment (human, UniProt O18755 76-129 (Procyon lotor entry)); experiment: as above
T8 construct: also called polypeptide E2; not shown: Glutathione S-transferase (GST) fusion partner
T8 sequence: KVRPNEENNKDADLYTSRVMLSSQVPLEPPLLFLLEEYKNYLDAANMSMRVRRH

[9] = target: T9, full length GST-huBDNFpro (human, UniProt P23560 20-129); experiment: as above
T9 construct: GST is placed at the N-terminus by the printed name only; not shown: Glutathione S-transferase (GST) fusion partner
T9 chain: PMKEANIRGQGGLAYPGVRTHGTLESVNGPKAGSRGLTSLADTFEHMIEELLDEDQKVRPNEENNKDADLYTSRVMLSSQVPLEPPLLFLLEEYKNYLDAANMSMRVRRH

[10] = target: T1, biotinylated LL peptide fragment; experiment: ELISA on biotinylated synthetic peptides (Example 8), single condition, concentrations not given
[11] = target: T10, biotinylated DH peptide fragment (human, also: biotinylated (position not given here)); experiment: as above
T10 construct: Synthesized in vitro; 12 amino acids; also called polypeptide DH
T10 peptide: DAANMSMRVRRH

[12] = target: T2, biotinylated VP peptide fragment; experiment: as above
[13] = target: T11, human proBDNF precursor protein (human, UniProt P23560 19-247); experiment: SPR, Biacore T200, capture method, antigen 0.25-8 nM
T11 construct: also called human proBDNF precursor recombinant protein
T11 sequence (looked up): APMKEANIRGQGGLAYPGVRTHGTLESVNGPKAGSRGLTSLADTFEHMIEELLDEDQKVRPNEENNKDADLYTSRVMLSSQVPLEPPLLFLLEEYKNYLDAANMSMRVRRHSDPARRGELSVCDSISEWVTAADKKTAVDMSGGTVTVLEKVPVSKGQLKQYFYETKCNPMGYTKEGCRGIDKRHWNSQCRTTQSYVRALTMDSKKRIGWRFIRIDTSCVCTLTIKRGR
Description: The affinity and kinetic parameters of the 1D3 and 2H8 monoclonal antibodies were measured by the capture method using Biacore T200 system (purchased from GE), respectively. The system was manipulated according to the instructions, human proBDNF precursor protein was used at a concentration of 0.25 nM, 0.5 nM, 1 nM, 2 nM, 4 nM, and 8 nM, respectively. The Biacore T200 evaluation software was used to evaluate the resulting action curve and calculate the affinity KD value.

BSA = target: T12, BSA (UniProt P02769 25-607); experiment: single-phage ELISA
T12 construct: also called negative control protein BSA
T12 sequence (P02769 25-607 limits assumed): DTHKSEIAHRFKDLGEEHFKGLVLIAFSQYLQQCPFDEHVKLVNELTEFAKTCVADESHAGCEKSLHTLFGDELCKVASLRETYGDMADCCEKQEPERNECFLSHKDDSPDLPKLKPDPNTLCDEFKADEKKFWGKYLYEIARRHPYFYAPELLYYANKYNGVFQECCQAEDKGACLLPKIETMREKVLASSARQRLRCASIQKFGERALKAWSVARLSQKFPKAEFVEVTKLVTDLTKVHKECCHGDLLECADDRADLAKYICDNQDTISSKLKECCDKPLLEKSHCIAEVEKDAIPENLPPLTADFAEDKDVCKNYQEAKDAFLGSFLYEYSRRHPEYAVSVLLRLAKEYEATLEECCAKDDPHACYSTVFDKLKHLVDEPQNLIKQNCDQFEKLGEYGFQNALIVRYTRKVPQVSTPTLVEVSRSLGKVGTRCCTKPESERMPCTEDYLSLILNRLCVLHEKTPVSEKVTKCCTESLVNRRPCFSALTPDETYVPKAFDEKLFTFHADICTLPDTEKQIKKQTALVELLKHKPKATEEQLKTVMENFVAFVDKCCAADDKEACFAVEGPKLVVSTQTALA
Description: Ninety-six clones were randomly selected from the fourth round of screening, and single-phage ELISA (enzyme-linked immunosorbent assay) was used to analyze their binding ability to human proBDNF precursors. For this purpose, each single colony was inoculated into 300 μl of 2×YT/ampicillin medium (containing 2% glucose) in a 96-well deep-well culture plate, shaken and cultured at 37° C. and 250 rpm for 16 hours. 20 μl of the culture was inoculated into 500 μl of 2×YT/ampicillin medium (containing 0.1% glucose), and shaken and cultured at 37° C. and 250 rpm for 1.5 hours. For preparing helper phage solution, 75 μl of M13KO7 (titer: 3×10¹² pfu/ml) was taken and mixed into 15 ml of 2×YT medium, added to the culture plate at 50 μl/well, and incubate at 37° C. and 150 rpm for 30 minutes. And then, the prepared kanamycin solution was added at 50 μl/well (180 μl of 50 mg/ml kanamycin was taken and added to 15 ml 2×YT medium), and shaken and cultured at 37° C. and 250 rpm for 16 hours. […]
To perform a single phage ELISA, a 96-well MediSorp ELISA plate (purchased from Nunc) was coated with 100 ng/well antigen human proBDNF precursor and negative control protein BSA (100 μl/well) respectively, overnight at 4° C. […] The extinction value was measured at 450 nm using an enzyme-linked immunoassay device (Bio-Rad).

Row | Binder | binding result [1] | binding result [2] | binding result (GST-huBDNFpro E4 [3]) | binding result (GST-huBDNFpro E1 [4]) | OD450nM [5] | OD450nM (GST-huBDNFpro E4 [6]) | OD450nM (GST-huBDNFpro E3) | OD450nM (GST-huBDNFpro E1 [7]) | OD450nM (GST-GPC3) | OD450nM [8] | OD450nM [9] | OD450nM [10] | OD450nM [11] | OD450nM [12] | Kd [13] [nM] | koff [13] [s⁻¹] | kon [13] [M⁻¹ s⁻¹] | binding result (BSA)
1 | B1 | no binding | no binding | no binding | no binding | 0.979 | 0.0081 | 0.0245 | 0.0114 | 0.0577 | 0.914 | 0.625 | 0.0167 | 1.7 | 0.0122 | – | – | – | –
2 | B2 | no binding | no binding | no binding | no binding | 1.06 | 0.0089 | 0.0144 | 0.015 | 0.05 | 0.962 | 0.758 | 0.0115 | 0.831 | 0.0104 | 1.91 | 0.00594 | 3.1e+06 | –
3 | B3 | – | – | – | – | – | – | – | – | – | – | – | – | – | – | – | – | – | no binding (tested: 100 ng/well coated)
4 | B4 | – | – | – | – | – | – | – | – | – | – | – | – | – | – | – | – | – | no binding (tested: 100 ng/well coated)
